Data set [1] addresses DnaT N-terminal core domain (E. coli). Nature of the data set: fluorescence polarisation. On the technique in general: Fluorescence polarisation rises when a labelled molecule tumbles more slowly, as on binding a larger partner.
Data set [2] shares this target. The data set can be described thus: fluorescence polarisation. This is another data set of the same source.
The data set “AUC” deals with the molecule itself. The data set can be described thus: AUC.
Data set [3] concerns the molecule itself. The data set can be described thus: fluorescence polarisation.

Read-outs that look alike come from different tables or passages of the source.

By stoichiometry N is commonly meant a count of units in the complex or per binding partner.

As to “DnaT N-terminal core domain (domain or fragment)”, the dH in data set [1] was 2.2 kcal/mol; in data set [2], -4.6 kcal/mol.

B1: Escherichia coli DnaT protein (natural protein, E. coli, UniProt P0A8J2 1-179, looked up)
chain: MSSRVLTPDVVGIDALVHDHQTVLAKAEGGVVAVFANNAPAFYAVTPARLAELLALEEKLARPGSDVALDDQLYQEPQAAPVAVPMGKFAMYPDWQPDADFIRLAALWGVALREPVTTEELASFIAYWQAEGKVFHHVQWQQKLARSLQIGRASNGGLPKRDVNTVSEPDSQIPPGFRG
For the molecule B1, the “stoichiometry N” value in the data set “AUC” worked out at 3. Further, the dH in data set [3] is -15 ± 2 kcal/mol.
